The values below come from patent US20170210824A1 (SALK INSTITUTE FOR BIOLOGICAL STUDIES, published 2017).

In test [1] the target is T1, Peptide-1C (ACLY-like H760, 3-pTza) (N-terminus assumed; SMILES C[C@H](N)C(=O)NCC(=O)N[C@@H](C)C(=O)NCC(=O)N[C@@H](Cn1cc(P(=O)(O)O)nn1)C(=O)N[C@@H](C)C(=O)NCC(=O)N[C@@H](C)C(=O)NCC(N)=O).
T1 construct: also called AGAG-3-pTza-AGAG; A/G motif peptide (based on ACLY)
T1 peptide: AGAG[3‑pTza]AGAG-NH2
Briefly: 3-pTza peptide dot blot array. The method, then:
(§1) The 3-pHis antibodies bound only the 3-pTza peptides and the 1-pHis antibodies bound only the 1-pTza peptides, regardless of sequence (FIG. 4A). Identical membranes were probed with 1-pHis mAbs as part of our screening process to select mAbs with the broadest sequence recognition (FIG. 4B). […] 3-pHis mAb SC39-4 was able to detect all 3-pTza peptides down to 800 pg; however, binding to the KCa3.1 peptide was relatively poor (100 ng). […] SC44 detected the A/G motif peptide (based on ACLY) and the immunizing peptide library down to 160 pg and 800 pg respectively, confirming its sequence bias.
(§2) pTza peptide dot blot arrays: 1-pTza, 3-pTza or His was incorporated into synthetic peptides of defined sequences from mammalian proteins with mapped pHis sites. The peptides used were as follows: ACLY-like H760 (AGAG-X-AGAG, SEQ ID NO: 62), PGAM H11 (VLIR-X-GESA, SEQ ID NO: 63), NME1 H118 (RNII-X-GSDS, SEQ ID NO: 64), Histone H4 H18 (GAKR-X-RKVL, SEQ ID NO: 65), KCa3.1 H358 (VRLK-X-RKLR, SEQ ID NO: 66) and GNB1 H266 (MTYS-X-DNII, SEQ ID NO: 67) where X=His, 1-pTza or 3-pTza. Peptides were dissolved in water at a stock concentration of 1 mg/ml. 1:5 serial dilutions (500, 100, 20, […] ng/ul) were prepared for each peptide and 1 ul of each dilution was spotted on nitrocellulose membrane and allowed to dry for 1-2 hr at RT. […] Immunoblotting was performed as described above.

The target of test [2] is T2, Peptide-3C (NME1 H118, 3-pTza) (mammalian, N-terminus assumed; SMILES …).
T2 construct: also called RNII-3-pTza-GSDS
T2 peptide: RNII[3‑pTza]GSDS-NH2
Briefly: 3-pTza peptide dot blot array. The method, then: as §1, §2

Test [3] has as its target T3, Peptide-2C (PGAM H11, 3-pTza) (mammalian, N-terminus assumed; SMILES …).
T3 construct: also called VLIR-3-pTza-GESA; PGAM peptide
T3 peptide: VLIR[3‑pTza]GESA-NH2
In words: 3-pTza peptide dot blot array. The method, then:
as §1, §2

Test [4] deals with T4, Peptide-4C (Histone H4 H18, 3-pTza) (mammalian, N-terminus assumed; SMILES …).
T4 construct: also called GAKR-3-pTza-RKVL
T4 peptide: GAKR[3‑pTza]RKVL-NH2
Briefly: 3-pTza peptide dot blot array. The method, then:
as §1, §2

The target in test [5] is T5, Nck pY105 peptide (CGERLpYDLNMPAYVK).
T5 construct: also called pTyr (NCK) peptide; pTyr peptide (Nck pY105)
T5 peptide: CGERL[pY]DLNMPAYVK
Briefly: pTyr peptide dot blot.

Test [6] addresses T6, FAK pY397 peptide (AVSVSETDDpYAEIIDEEDTYT) (phosphotyrosine at position 10 (pY397)).
T6 construct: also called FAK pTyr peptide
T6 peptide: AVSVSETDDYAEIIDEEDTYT
In words: pTyr peptide dot blot.

Test [7] deals with T7, Eck (Ephrin A2) pY588 peptide (CLKPLKTpYVD).
T7 construct: also called Eck/EphA2 pTyr peptide
T7 peptide: CLKPLKT[pY]VD
In words: pTyr peptide dot blot.

The target in test [8] is T8, Nck Y105 peptide (CGERLYDLNMPAYVK).
T8 construct: also called unphosphorylated Nck peptide
T8 peptide: CGERLYDLNMPAYVK
Briefly: pTyr peptide dot blot.

The target in test [9] is T9, Eck (Ephrin A2) Y588 peptide (CLKPLKTYVD).
T9 construct: also called unphosphorylated Eck peptide
T9 peptide: CLKPLKTYVD
In words: pTyr peptide dot blot.

Test [10] concerns the target T10, phospho-PGAM (phosphoglycerate mutase with 3-pHis on H11) (human, UniProt P18669 1-254, 3-phosphohistidine at H11).
T10 construct: Used both for the purified recombinant protein and for the endogenous protein in 293 cell lysates; also called pPGAM; in vitro phosphorylated PGAM
Briefly: immunoblot of HeLa and FLAG-NME1 293 cell lysates. The method, then:
FIGS. 6A-6E. 3-pHis Antibody Screening. (FIG. 6A) High throughput, slot blot screening of 3-pHis hybridoma subclones. Cell supernatants containing 3-pHis mAbs were screened as described using lysates from E. coli transformed with GST-PGAM. (FIG. 6B) Representative immunoblots using indicated subclones are shown. E. coli lysates identical to those used in ([…]) were treated with and without heating to 95° C. for 10 min to determine if the detected bands were heat-sensitive. Bacterial (FIG. 6B) and mammalian SCS (FIG. 6C) is detected by 3-pHis mAb SC44-8. (FIG. 6C) Mammalian cell lysates from HeLa and FLAG-NME1 293 cells were probed with mAb SC44-8. Phospho-SCS and ACLY, but not PGAM, is recognized by this mAb. (FIG. 6D) SCS H299 (SEQ ID NO: 69) is aligned with ACLY H760 (SEQ ID NO: 68) to highlight amino acids the flanking the pHis site are identical and have a G-pH-A-H-A motif that is different from the pHis site on PGAM at H11 (SEQ ID NO:70). […]
Immunoblotting with anti-pHis antibodies: In general, immunoblotting with anti-pHis antibodies was performed with modifications to standard procedures to help preserve pHis for detection. […] Lysates were clarified by centrifugation (14,000×g for 5-15 min at 4° C.) and analyzed immediately using freshly prepared Bis-Tris polyacrylamide minigels with a modified, pH 8.8 stacking gel and either 10% or 12.5% resolving gels.

Test [11] addresses T11, ACLY (ATP-citrate lyase), 3-pHis on H760 (mammalian, UniProt P53396 1-1101, 3-phosphohistidine at H760).
T11 sequence (looked up): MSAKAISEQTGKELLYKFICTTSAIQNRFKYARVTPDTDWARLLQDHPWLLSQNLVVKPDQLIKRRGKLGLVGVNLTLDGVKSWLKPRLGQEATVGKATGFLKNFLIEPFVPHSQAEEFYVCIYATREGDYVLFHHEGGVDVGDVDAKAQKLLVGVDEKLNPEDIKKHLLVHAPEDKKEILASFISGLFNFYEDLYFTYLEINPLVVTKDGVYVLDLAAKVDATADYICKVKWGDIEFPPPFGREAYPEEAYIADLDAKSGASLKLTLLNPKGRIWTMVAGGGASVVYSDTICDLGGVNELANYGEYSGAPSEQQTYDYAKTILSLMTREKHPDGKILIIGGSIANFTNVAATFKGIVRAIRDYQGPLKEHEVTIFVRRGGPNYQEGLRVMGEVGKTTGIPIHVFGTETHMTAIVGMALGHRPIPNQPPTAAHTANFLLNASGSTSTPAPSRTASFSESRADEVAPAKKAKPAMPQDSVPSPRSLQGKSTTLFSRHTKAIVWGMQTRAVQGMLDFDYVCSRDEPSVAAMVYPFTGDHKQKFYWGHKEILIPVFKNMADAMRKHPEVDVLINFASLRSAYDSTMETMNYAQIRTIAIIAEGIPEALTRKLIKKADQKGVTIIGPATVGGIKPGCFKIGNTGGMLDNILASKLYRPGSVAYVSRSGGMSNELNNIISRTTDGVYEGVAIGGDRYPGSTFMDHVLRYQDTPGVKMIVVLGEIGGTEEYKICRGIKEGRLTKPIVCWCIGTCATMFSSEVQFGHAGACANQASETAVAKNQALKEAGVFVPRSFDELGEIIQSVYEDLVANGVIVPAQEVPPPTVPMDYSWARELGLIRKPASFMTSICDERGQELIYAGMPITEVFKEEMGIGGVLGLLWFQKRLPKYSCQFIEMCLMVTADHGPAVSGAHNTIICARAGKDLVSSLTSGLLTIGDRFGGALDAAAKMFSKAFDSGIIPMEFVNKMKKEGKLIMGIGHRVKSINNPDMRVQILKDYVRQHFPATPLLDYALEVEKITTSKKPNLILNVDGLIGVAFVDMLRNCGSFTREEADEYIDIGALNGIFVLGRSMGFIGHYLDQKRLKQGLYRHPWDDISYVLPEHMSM
In words: immunoblot of mammalian cell lysates. The method, then: (§3) Immunoblotting with anti-pHis antibodies: In general, immunoblotting with anti-pHis antibodies was performed with modifications to standard procedures to help preserve pHis for detection. Buffers were adjusted to pH 8-9 to stabilize pHis and methods were modified to avoid heating samples. Protein samples were prepared in pH 8.8 sample buffer (5×=10% SDS, 250 mM Tris-HCl, pH 8.8, 0.02% Bromophenol blue, 50% glycerol, 50 mM EDTA, 500 mM DTT) for electrophoresis. Mammalian whole cell lysates were prepared by rinsing 70-100% confluent 10 cm² dishes twice with 5 ml cold TD buffer (TBS −/−, pH 8). Cells were scraped directly into 2× pH 8.8 sample buffer, incubated on ice and a cup horn sonicator was used (3-5×5 sec bursts) to disrupt cells and shear DNA. Lysates were clarified by centrifugation (14,000×g for 5-15 min at 4° C.) and analyzed immediately using freshly prepared Bis-Tris polyacrylamide minigels with a modified, pH 8.8 stacking gel and either 10% or 12.5% resolving gels. Electrophoresis buffer recipes were as follows: Running Buffer: (1×20 L, pH 8.5) 20 g SDS, 60 g Trizma Base, 288 g glycine, dH₂0 to 20 L, Transfer Buffer: (1×4 L, pH 8.5) 56.7 g glycine, 4 g SDS, 12 g Trizma Base, 800 ml MeOH, dH₂0 to 4 L. All electrophoresis steps were performed at 4° C. and samples were resolved at 90-100V for 2-3 hr. […]

The target of test [12] is T12, mammalian SCS (succinyl-CoA synthetase), 3-pHis on H299 (mammalian, UniProt P53597 41-346, 3-phosphohistidine at H299).
T12 construct: also called Phospho-SCS
T12 sequence (P53597 41-346): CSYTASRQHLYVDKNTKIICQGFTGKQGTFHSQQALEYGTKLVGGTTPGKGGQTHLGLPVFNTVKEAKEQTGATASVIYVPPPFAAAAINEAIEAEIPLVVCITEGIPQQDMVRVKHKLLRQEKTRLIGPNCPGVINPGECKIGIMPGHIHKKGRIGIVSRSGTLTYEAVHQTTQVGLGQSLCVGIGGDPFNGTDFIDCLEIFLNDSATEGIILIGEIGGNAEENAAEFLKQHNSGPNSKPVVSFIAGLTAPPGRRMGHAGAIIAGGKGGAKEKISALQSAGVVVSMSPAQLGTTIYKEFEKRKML
Briefly: immunoblot of mammalian cell lysates. The method, then:
as §3

*1 amine or outer side, *2 acyl side, *3 side chain or, on linkers, in order; H or OH if unused. Where no end group is shown, it is not given here. [ ]: non-standard residue; d: D form. 3‑pTza = 3-phosphoryltriazolylalanine, non-hydrolysable phosphonate triazole analogue of 3-phosphohistidine, O=C([C@H](Cn1cc(P(=O)(O)O)nn1)N[*:1])[*:2]; pY = N[C@@H](Cc1ccc(OP(=O)(O)O)cc1)C(=O)O

T10 sequence (P18669 whole entry): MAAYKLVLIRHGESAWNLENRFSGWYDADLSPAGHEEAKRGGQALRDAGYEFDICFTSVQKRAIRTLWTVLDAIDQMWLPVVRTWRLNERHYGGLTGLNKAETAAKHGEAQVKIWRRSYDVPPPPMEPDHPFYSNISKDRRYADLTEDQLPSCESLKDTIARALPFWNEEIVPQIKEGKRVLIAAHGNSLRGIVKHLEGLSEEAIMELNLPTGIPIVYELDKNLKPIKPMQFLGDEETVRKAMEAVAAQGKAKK

B1: 3-pHis mAb SC56-2 (antibody, V domains shown)
VH: SVKESEGGLIKPGGILTLTCTASGFSLSSYGFSWVRQAPGKGLEHIGYLHANGRAYYATWAKSRSTITRNTNLNTVTLQLTSLTAADTATYFCAKIGSVSDVAIWGPGTLVTVSS
VL: DPVMTQTPSSTSAAVGGTVTINCQSSESIYNNKNLAWYQQKPGQSPRRLIYSISTLASGVSSRFKGSGSGTQFTLTISDVQCDDAATYYCVGYYYSGGYYYSGSAAYYAFGGGTEVVVKG
notes: Rabbit hybridoma monoclonal IgG; also called SC56s (subclones of MC56)
B1: the binding result in [1] was “binds”; in test [2] it was “binds”; in test [3] it was “binds”; in test [4], “binds”; in test [5] it was “no binding”; in test [6], “no binding”. Moreover, the binding result in [7], in test [8] and in test [9] was “no binding” each time.

B2: 3-pHis mAb SC44-8 (antibody, V domains shown)
VH: ESGRGLVQPGGSLTLTCTASGFSIDSYGFSWVRQAPGKGLEHIGYLTAGGRAFYASWAKSRSTITRNTNENTVTLKMTSLTAADTATYFCAKLGSGNPVAIWGPGTLVTVSS
VL: DPVMTPTPSFTSAAVGGTVTINCQSSQSVWRNKNLAWYQQKPGQPPKRLIYAIATLDSGVPSRFSGSGSGTQFTLTISDVQCDDAATYYCVGHYGSENDAYYAFGGGTEVVVKG
notes: Rabbit hybridoma monoclonal IgG; also called SC44s (subclones of MC44)
B2: the binding result in [10], in test [5], in [6], in test [7], in test [8] and in test [9] was “no binding” each time. Moreover, the binding result in test [11] and in test [12] was “binds” throughout.
